Results from US20240327522A1 (Genentech, published 2024).

Tests used:
[1] = target: T1, recombinant human αvβ8 protein (PARS-17102) (human); assay: SPR, Biacore T200, Protein A capture, human αvβ8 analyte 0-100 nM, 37 C, 1:1 model (comparison with hADWA11-2.4, FIG. 9B)
T1 construct: also called hu.aVb8.17102; not shown: C-terminal acid/basic coils and any purification tags
T1 alpha: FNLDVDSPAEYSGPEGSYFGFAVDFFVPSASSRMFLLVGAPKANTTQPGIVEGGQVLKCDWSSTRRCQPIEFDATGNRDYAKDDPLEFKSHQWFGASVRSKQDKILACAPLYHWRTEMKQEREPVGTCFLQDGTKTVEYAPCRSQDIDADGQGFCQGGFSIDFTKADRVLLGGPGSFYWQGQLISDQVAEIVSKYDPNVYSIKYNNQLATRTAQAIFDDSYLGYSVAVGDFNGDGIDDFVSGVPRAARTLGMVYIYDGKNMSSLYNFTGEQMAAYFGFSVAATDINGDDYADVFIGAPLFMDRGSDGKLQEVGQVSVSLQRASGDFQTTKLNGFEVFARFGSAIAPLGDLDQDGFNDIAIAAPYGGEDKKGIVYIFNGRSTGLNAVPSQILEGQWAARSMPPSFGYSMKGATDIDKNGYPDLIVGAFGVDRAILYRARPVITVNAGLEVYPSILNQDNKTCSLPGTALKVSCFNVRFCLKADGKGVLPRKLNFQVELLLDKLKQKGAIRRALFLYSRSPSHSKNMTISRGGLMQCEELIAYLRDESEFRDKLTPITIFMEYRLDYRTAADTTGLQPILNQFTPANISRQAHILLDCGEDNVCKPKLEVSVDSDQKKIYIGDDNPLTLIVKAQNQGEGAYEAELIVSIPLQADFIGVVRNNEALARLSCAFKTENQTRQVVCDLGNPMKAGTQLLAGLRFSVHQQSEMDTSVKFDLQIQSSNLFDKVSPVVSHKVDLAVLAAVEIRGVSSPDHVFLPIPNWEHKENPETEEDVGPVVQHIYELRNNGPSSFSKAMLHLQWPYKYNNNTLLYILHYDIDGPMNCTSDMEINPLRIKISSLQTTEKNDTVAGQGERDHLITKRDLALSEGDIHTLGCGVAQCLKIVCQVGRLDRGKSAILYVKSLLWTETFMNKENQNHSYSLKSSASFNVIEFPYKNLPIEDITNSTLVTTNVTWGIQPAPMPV
T1 beta: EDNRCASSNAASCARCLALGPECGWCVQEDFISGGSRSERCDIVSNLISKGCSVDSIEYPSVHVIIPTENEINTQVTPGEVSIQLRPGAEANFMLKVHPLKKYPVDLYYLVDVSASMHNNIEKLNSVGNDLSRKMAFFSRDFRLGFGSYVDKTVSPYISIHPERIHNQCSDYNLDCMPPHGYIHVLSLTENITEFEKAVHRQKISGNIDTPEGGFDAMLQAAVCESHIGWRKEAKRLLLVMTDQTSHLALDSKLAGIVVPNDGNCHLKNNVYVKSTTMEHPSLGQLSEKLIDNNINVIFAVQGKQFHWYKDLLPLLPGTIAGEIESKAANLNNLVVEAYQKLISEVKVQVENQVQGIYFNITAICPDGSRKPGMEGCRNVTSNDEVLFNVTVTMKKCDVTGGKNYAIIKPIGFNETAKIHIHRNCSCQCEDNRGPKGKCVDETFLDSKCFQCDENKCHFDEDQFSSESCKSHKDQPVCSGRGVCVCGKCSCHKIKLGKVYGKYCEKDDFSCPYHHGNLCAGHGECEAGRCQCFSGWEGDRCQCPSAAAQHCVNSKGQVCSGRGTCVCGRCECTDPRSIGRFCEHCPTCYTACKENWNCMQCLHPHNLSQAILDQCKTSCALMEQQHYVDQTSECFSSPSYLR
Experimental: (§1) The antibodies were first captured either on a Biacore™ Protein A biosensor chip (Cytiva Life Sciences) or on an anti-murine Fc chip to achieve approximately 60 response units. Binding measurements were performed using a running buffer composed of 10 mM HEPES (pH 7.4), 150 mM NaCl, 0.5 mM CaCl₂), and 0.005% Surfactant P20 (Cytiva Life Sciences). For comparison between αvβ8-65 and hC6D4, a 5-fold dilution series of human αvβ8 (range, 0-100 nM in running buffer) was injected into the Biacore™ T200. For comparison between αvβ8-65 and hADWA11-2.4, a 5-fold dilution series of human αvβ8 (range, 0-100 nM in running buffer) was injected. For comparison of all three antibodies in the murine Fc format, a 5-fold dilution series of human αvβ8 (range, 0-50 nM in running buffer) was injected. All injections were performed over 180 seconds, with a dissociation time of 1200 seconds, at a flow rate of 100 μL/minute and a temperature of 37° C. Between sample injections, a regeneration reagent (10 mM glycine pH 1.5 for protein A chip; 10 mM glycine pH 1.7 for anti-murine Fc chip) was injected to regenerate the sensor chip (twice, over 30 seconds at 10 μL/minute for each injection). To determine the binding kinetics and affinity constants of the antibodies to human αvβ8 protein, the signal from the reference flow cell (FC1, with only protein A on the surface) was “double referenced” by subtracting the signal observed after injecting the sample over FC1, followed by subtracting the signal observed after injecting only running buffer. The kinetic constants were calculated using nonlinear regression fitting of the data, according to a 1:1 Langmuir binding model, using Biacore™ Evaluation Software (Cytiva Life Sciences).
(§2) The values of the kinetic constants kon, koff, and KD for the binding of αvβ8-65, hC6D4 and ADWA11-2.4 to the various species of αvβ8 proteins are summarized in Table 13. A 1:1 Langmuir binding model was used to determine the KD values. The sensograms observed for the bindings of the various αvβ8 proteins to the captured antibody are shown in FIG. 9A, FIG. 9B, and FIG. 10.

human αvβ1 = target: T2, human αvβ1 (human, UniProt P06756 31-992; P05556 21-728); assay: SPR binding assay, sample hu.aVb1,3,5,6
T2 construct: Counter-screen integrin; construct not described; also called hu.aVb1; αVP1

human αvβ5 = target: T3, human αvβ5 (human, UniProt P06756 31-992; P18084 24-719); assay: SPR binding assay, sample hu.aVb1,3,5,6
T3 construct: Counter-screen integrin; construct not described; also called hu.aVb5; αV05

human αvβ6 = target: T4, human αvβ6 (human, UniProt P06756 31-992; P18564 22-709); assay: SPR binding assay, sample hu.aVb1,3,5,6
T4 construct: Counter-screen integrin; construct not described; also called hu.aVb6; αV06

[2] = target: T1, recombinant human αvβ8 protein …; assay: SPR, Biacore T200, Protein A capture, human αvβ8 analyte 0-100 nM, 37 C, 1:1 model (comparison with hC6D4, FIG. 9A)
Experimental: as §1, §2

T2 sequence (P05556 21-728 limits assumed, one chain of several): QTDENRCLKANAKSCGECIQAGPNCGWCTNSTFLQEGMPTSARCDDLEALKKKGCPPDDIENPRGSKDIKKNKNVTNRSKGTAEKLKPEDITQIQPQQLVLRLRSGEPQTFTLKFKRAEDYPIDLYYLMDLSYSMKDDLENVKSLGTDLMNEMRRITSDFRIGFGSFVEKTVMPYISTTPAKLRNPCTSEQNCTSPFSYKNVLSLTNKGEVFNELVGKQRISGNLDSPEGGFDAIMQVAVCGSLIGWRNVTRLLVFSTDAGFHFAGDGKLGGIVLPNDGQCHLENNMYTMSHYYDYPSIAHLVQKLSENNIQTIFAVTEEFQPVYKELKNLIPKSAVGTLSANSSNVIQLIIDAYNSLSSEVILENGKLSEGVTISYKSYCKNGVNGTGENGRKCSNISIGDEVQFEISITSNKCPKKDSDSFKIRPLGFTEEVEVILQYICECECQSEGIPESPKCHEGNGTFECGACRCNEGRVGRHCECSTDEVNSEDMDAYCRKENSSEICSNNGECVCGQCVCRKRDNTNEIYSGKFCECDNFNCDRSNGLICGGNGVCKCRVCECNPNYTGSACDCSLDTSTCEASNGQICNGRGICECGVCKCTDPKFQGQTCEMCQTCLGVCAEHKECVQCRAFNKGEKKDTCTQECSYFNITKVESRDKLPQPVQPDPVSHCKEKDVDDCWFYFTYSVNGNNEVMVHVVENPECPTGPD
T4 sequence (P18564 22-709 limits assumed, one chain of several): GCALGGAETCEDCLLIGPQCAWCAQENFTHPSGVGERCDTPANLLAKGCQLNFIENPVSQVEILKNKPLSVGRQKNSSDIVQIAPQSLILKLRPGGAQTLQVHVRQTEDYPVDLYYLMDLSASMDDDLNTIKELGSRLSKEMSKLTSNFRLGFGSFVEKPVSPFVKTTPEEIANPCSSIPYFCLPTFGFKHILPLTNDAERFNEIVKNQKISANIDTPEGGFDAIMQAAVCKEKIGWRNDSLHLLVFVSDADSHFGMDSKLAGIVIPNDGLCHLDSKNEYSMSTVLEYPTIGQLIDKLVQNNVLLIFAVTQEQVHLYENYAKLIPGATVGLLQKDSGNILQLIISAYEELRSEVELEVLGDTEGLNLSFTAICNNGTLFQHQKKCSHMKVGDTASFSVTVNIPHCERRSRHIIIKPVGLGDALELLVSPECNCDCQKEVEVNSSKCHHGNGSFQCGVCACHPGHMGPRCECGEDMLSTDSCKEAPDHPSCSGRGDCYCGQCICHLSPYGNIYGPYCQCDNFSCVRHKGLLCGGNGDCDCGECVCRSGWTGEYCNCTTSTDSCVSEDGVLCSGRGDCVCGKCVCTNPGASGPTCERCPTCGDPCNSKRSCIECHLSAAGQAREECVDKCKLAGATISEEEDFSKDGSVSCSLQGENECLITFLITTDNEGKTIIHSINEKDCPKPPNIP
T3 sequence (P18084 24-719 limits assumed, one chain of several): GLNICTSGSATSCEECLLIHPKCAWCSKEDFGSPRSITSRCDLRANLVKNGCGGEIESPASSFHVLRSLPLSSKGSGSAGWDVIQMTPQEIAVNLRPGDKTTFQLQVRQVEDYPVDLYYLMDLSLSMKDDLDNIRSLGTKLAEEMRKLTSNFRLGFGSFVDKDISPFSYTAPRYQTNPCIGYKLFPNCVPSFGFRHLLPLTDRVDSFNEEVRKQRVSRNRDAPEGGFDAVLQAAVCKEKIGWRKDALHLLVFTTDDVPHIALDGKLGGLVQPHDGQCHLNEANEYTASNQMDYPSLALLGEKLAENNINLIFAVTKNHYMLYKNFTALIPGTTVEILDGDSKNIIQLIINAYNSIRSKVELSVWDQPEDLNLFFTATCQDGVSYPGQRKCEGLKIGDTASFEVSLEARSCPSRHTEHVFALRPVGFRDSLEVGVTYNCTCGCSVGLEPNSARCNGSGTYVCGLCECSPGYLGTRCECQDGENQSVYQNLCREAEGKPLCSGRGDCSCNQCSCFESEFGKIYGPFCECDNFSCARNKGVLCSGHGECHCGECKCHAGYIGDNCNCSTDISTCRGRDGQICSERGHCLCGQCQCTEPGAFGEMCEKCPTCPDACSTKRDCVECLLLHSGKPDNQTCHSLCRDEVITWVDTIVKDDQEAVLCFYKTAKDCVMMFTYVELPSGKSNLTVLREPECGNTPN

B1: Hu.aVb8-65.H15L2 (aVb8-65.H15L2.hIgG1.LALAPG) (antibody, V domains shown)
VH: EVQLLESGGGLVQPGGSLRLSCAASGIDLSNYAMIWVRQAPGKGLEWVGIISSSDRIWYASWVKGRFTISRDNSKNTLYLQMNSLRAEDTAVYYCSRSVSNSYFDGWNLWGQGTLVTVSS
VL: DIQMTQSPSSVSASVGDRVTITCQASENINSLLAWYQQKPGKAPKLLIYRASTLASGVPSRFSGSGSGTDFTLTISSLQPEDFATYYCQSNYGFTGSGAFFYGFGQGTKVEIKR
notes: Human IgG1 LALAPG; also called PARS-20475-65 (IH) aVb8-65.H15L2.hIgG1.LALAPG; humanized αvβ8-65
[1]
  Kd: 0.528 nM
  koff: 9.58e-05 s⁻¹
  kon: 181000 M⁻¹ s⁻¹
Human αvβ1
  binding result: no binding
Human αvβ5
  binding result: no binding
Human αvβ6
  binding result: no binding
[2]
  Kd: 1.01 nM
  koff: 0.000169 s⁻¹
  kon: 168000 M⁻¹ s⁻¹
